Measurements published in the supplement of paper PMC9233669.
Variants at the floor of the assay were thinned out.

Legend:
[1] = test system: biotinyl-Phe-oxazolone; experiment: self-aminoacylation, catalytic enhancement (BFO) (fold over background); higher = more active; k-Seq, kA / k0A0; sequences stand for … in GGGAAUGGAUCCACAUCUACGAAUUC…UUCACUGCAGACUUGACGAAGCUG
In short: (§1)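 Mutagenized RNA pools with a 21-nt variable region (0.43 μM) reacted with each biotinyl-aminoacyl-oxazolone at 2–1250 μM. Reactions ran in 50 μL HEPES/NaCl/KCl/MgCl2/CaCl2 buffer with 5% acetonitrile, pH 6.9–7.0, for 90 minutes at room temperature. Streptavidin-captured RNA was quantified by triplicate qPCR and Illumina sequencing, and per-sequence fraction reacted was fit to a pseudo-first-order model with 1000 bootstraps. Catalytic enhancement is median kA divided by the uncatalyzed rate, the low-activity peak of a bimodal Gaussian fit.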

[2] = test system: biotinyl-Ile-oxazolone; experiment: self-aminoacylation, catalytic enhancement (BIO) (fold over background); higher = more active; k-Seq, kA / k0A0; sequences stand for … in GGGAAUGGAUCCACAUCUACGAAUUC…UUCACUGCAGACUUGACGAAGCUG
In short: as §1

[3] = test system: biotinyl-Val-oxazolone; experiment: self-aminoacylation, catalytic enhancement (BVO) (fold over background); higher = more active; k-Seq, kA / k0A0; sequences stand for … in GGGAAUGGAUCCACAUCUACGAAUUC…UUCACUGCAGACUUGACGAAGCUG
In short: as §1

[4] = test system: biotinyl-Leu-oxazolone; experiment: self-aminoacylation, catalytic enhancement (BLO) (fold over background); higher = more active; k-Seq, kA / k0A0; sequences stand for … in GGGAAUGGAUCCACAUCUACGAAUUC…UUCACUGCAGACUUGACGAAGCUG
In short: as §1

[5] = test system: biotinyl-Trp-oxazolone; experiment: self-aminoacylation, catalytic enhancement (BWO) (fold over background); higher = more active; k-Seq, kA / k0A0; sequences stand for … in GGGAAUGGAUCCACAUCUACGAAUUC…UUCACUGCAGACUUGACGAAGCUG
In short: as §1

[6] = test system: biotinyl-Met-oxazolone; experiment: self-aminoacylation, catalytic enhancement (BMO) (fold over background); higher = more active; k-Seq, kA / k0A0; sequences stand for … in GGGAAUGGAUCCACAUCUACGAAUUC…UUCACUGCAGACUUGACGAAGCUG
In short: as §1

## AAGUAUGCUAAUAGCCGCAAG [Fam3.1 aminoacylation ribozyme variant]
[1]
  self-aminoacylation: 5.73
[2]
  self-aminoacylation: 1.49
[3]
  self-aminoacylation: 1.05
[4]
  self-aminoacylation: 1.16
[5]
  self-aminoacylation: 2.58
[6]
  self-aminoacylation: 1.06

## AAGUAUGCUAAUAGUCUCAAG [Fam3.1 aminoacylation ribozyme variant]
[1]
  self-aminoacylation: 8.35
[2]
  self-aminoacylation: 1.43
[3]
  self-aminoacylation: 1.31
[4]
  self-aminoacylation: 1.6
[5]
  self-aminoacylation: 2.69
[6]
  self-aminoacylation: 1.55

## AAGUAUGCUAUUAGUCGCAAG [Fam3.1 aminoacylation ribozyme variant]
[1]
  self-aminoacylation: 1.49
[2]
  self-aminoacylation: 1.66
[3]
  self-aminoacylation: 1.59
[4]
  self-aminoacylation: 1.68
[5]
  self-aminoacylation: 1.76
[6]
  self-aminoacylation: 1.38

## AAGUAUUCUAAUAGUCGCAAG [Fam3.1 aminoacylation ribozyme variant]
[1]
  self-aminoacylation: 7.07
[2]
  self-aminoacylation: 1.61
[3]
  self-aminoacylation: 1.6
[4]
  self-aminoacylation: 1.71
[5]
  self-aminoacylation: 1.83
[6]
  self-aminoacylation: 1.58

## AAGUCCGCUAAUAGUCGCAAG [Fam3.1 aminoacylation ribozyme variant]
[1]
  self-aminoacylation: 46.3
[2]
  self-aminoacylation: 2.43
[3]
  self-aminoacylation: 2.09
[4]
  self-aminoacylation: 2.02
[5]
  self-aminoacylation: 10.7
[6]
  self-aminoacylation: 2.99

## AAGUCUGCUAAAAGUCGCAAG [Fam3.1 aminoacylation ribozyme variant]
[1]
  self-aminoacylation: 23.1
[2]
  self-aminoacylation: 1.35
[3]
  self-aminoacylation: 1.23
[4]
  self-aminoacylation: 1.72
[5]
  self-aminoacylation: 6.66
[6]
  self-aminoacylation: 1.92

## AAGUCUGCUAAUAGUCCCAAG [Fam3.1 aminoacylation ribozyme variant]
[1]
  self-aminoacylation: 7.42
[2]
  self-aminoacylation: 0.928
[3]
  self-aminoacylation: 0.893
[4]
  self-aminoacylation: 1.15
[5]
  self-aminoacylation: 2.43
[6]
  self-aminoacylation: 1.38

## AAGUCUGCUAAUAGUCGCAGG [Fam3.1 aminoacylation ribozyme variant]
[1]
  self-aminoacylation: 5.31
[2]
  self-aminoacylation: 1.7
[3]
  self-aminoacylation: 1.44
[4]
  self-aminoacylation: 2.25
[5]
  self-aminoacylation: 1.97
[6]
  self-aminoacylation: 2.07

## AAGUCUGCUAAUAGUCGGAAG [Fam3.1 aminoacylation ribozyme variant]
[1]
  self-aminoacylation: 18.4
[2]
  self-aminoacylation: 1.25
[3]
  self-aminoacylation: 1.61
[4]
  self-aminoacylation: 1.87
[5]
  self-aminoacylation: 7.78
[6]
  self-aminoacylation: 2.09

## AAGUCUGCUAAUAGUGGCAAG [Fam3.1 aminoacylation ribozyme variant]
[1]
  self-aminoacylation: 3.1
[2]
  self-aminoacylation: 0.678
[3]
  self-aminoacylation: 0.765
[4]
  self-aminoacylation: 0.866
[5]
  self-aminoacylation: 1.17
[6]
  self-aminoacylation: 0.98

## AAGUCUGCUAGUAGUCGCAAG [Fam3.1 aminoacylation ribozyme variant]
[1]
  self-aminoacylation: 1.06
[2]
  self-aminoacylation: 0.775
[3]
  self-aminoacylation: 1.06
[4]
  self-aminoacylation: 1.44
[5]
  self-aminoacylation: 0.88
[6]
  self-aminoacylation: 0.975

## AAGUCUGCUUAUAGUCGCAAG [Fam3.1 aminoacylation ribozyme variant]
[1]
  self-aminoacylation: 1.42
[2]
  self-aminoacylation: 0.895
[3]
  self-aminoacylation: 0.822
[4]
  self-aminoacylation: 1.25
[5]
  self-aminoacylation: 0.87
[6]
  self-aminoacylation: 1.18

## AAGUCUGUUAAUAGUCGCAAG [Fam3.1 aminoacylation ribozyme variant]
[1]
  self-aminoacylation: 1.04
[2]
  self-aminoacylation: 1.14
[3]
  self-aminoacylation: 1.03
[4]
  self-aminoacylation: 1.01
[5]
  self-aminoacylation: 0.936
[6]
  self-aminoacylation: 1.03

## AAGUGUGCUAAUAAUCGCAAG [Fam3.1 aminoacylation ribozyme variant]
[1]
  self-aminoacylation: 1.51
[2]
  self-aminoacylation: 1.35
[3]
  self-aminoacylation: 1.29
[4]
  self-aminoacylation: 0.989
[5]
  self-aminoacylation: 1.09
[6]
  self-aminoacylation: 1.25

## AAGUGUGCUAAUAGUAGCAAG [Fam3.1 aminoacylation ribozyme variant]
[1]
  self-aminoacylation: 1.65
[2]
  self-aminoacylation: 1.27
[3]
  self-aminoacylation: 1.33
[4]
  self-aminoacylation: 1.21
[5]
  self-aminoacylation: 1.6
[6]
  self-aminoacylation: 1.02

## AAGUGUGCUAAUGGUCGCAAG [Fam3.1 aminoacylation ribozyme variant]
[1]
  self-aminoacylation: 2.15
[2]
  self-aminoacylation: 0.864
[3]
  self-aminoacylation: 1.06
[4]
  self-aminoacylation: 0.792
[5]
  self-aminoacylation: 1.21
[6]
  self-aminoacylation: 0.926

## AAGUGUGCUAAUUGUCGCAAG [Fam3.1 aminoacylation ribozyme variant]
[1]
  self-aminoacylation: 1.56
[2]
  self-aminoacylation: 1.5
[3]
  self-aminoacylation: 1.49
[4]
  self-aminoacylation: 1.51
[5]
  self-aminoacylation: 2.65
[6]
  self-aminoacylation: 1.45

## AAGUGUGCUAUUAGUCGCAAG [Fam3.1 aminoacylation ribozyme variant]
[1]
  self-aminoacylation: 2.19
[2]
  self-aminoacylation: 1.29
[3]
  self-aminoacylation: 1.43
[4]
  self-aminoacylation: 0.947
[5]
  self-aminoacylation: 0.997
[6]
  self-aminoacylation: 1.36

## AAGUGUGCUGAUAGUCGCAAG [Fam3.1 aminoacylation ribozyme variant]
[1]
  self-aminoacylation: 2.85
[2]
  self-aminoacylation: 1.53
[3]
  self-aminoacylation: 1.24
[4]
  self-aminoacylation: 1.42
[5]
  self-aminoacylation: 1.38
[6]
  self-aminoacylation: 1.74

## AAGUUAGCUAAUGGUCGCAAG [Fam3.1 aminoacylation ribozyme variant]
[1]
  self-aminoacylation: 1.77
[2]
  self-aminoacylation: 1.22
[3]
  self-aminoacylation: 1.08
[4]
  self-aminoacylation: 1.17
[5]
  self-aminoacylation: 1.55
[6]
  self-aminoacylation: 1.3

## AAGUUAGCUAUUAGUCGCAAG [Fam3.1 aminoacylation ribozyme variant]
[1]
  self-aminoacylation: 2.06
[2]
  self-aminoacylation: 1.99
[3]
  self-aminoacylation: 1.6
[4]
  self-aminoacylation: 1.82
[5]
  self-aminoacylation: 1.74
[6]
  self-aminoacylation: 1.34

## AAGUUCGCUAAUAGUCACAAG [Fam3.1 aminoacylation ribozyme variant]
[1]
  self-aminoacylation: 3.01
[2]
  self-aminoacylation: 1.59
[3]
  self-aminoacylation: 1.25
[4]
  self-aminoacylation: 1.6
[5]
  self-aminoacylation: 1.64
[6]
  self-aminoacylation: 1.56

## AAGUUCGCUAAUAGUCGCAUG [Fam3.1 aminoacylation ribozyme variant]
[1]
  self-aminoacylation: 8.49
[2]
  self-aminoacylation: 2.16
[3]
  self-aminoacylation: 2.37
[4]
  self-aminoacylation: 2.88
[5]
  self-aminoacylation: 3.05
[6]
  self-aminoacylation: 2.27

## AAGUUGGCUAAUAAUCGCAAG [Fam3.1 aminoacylation ribozyme variant]
[1]
  self-aminoacylation: 2.15
[2]
  self-aminoacylation: 1.72
[3]
  self-aminoacylation: 1.67
[4]
  self-aminoacylation: 1.34
[5]
  self-aminoacylation: 2.04
[6]
  self-aminoacylation: 1.29

## AAGUUGGCUAAUAGUCGCAAC [Fam3.1 aminoacylation ribozyme variant]
[1]
  self-aminoacylation: 2.17
[2]
  self-aminoacylation: 1.75
[3]
  self-aminoacylation: 1.4
[4]
  self-aminoacylation: 1.42
[5]
  self-aminoacylation: 1.93
[6]
  self-aminoacylation: 1.31
